B1: ADD1 (parent)
chain: GEGTGSPPKWQIGEQEFEALMRML

Variants of: B1
Experiment: protein stability index of a GFP-peptide fusion (GPS, HEK-293T) (PSI 1-6); higher = more stable
Conditions: c terminus: a fixed tail appended
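Further: lentivirally expressed fusions sorted by FACS into six bins by GFP to DsRed ratio, PSI derived from sequencing read proportions per bin multiplied by bin number.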

| Variant | protein stability index |
| --- | --- |
| GEGTGSPPKWYIGEQEFEALMRML [Q11Y] | 2.57 |
| GEGTGSPPKWTIGEQEFEALMRML [Q11T] | 3.51 |
| GEGTGSPPKWRIGEQEFEALMRML [Q11R] | 3.46 |
| GEGTGSPPKWHIGEQEFEALMRML [Q11H] | 3.23 |
| GEGTGSPPKWPIGEQEFEALMRML [Q11P] | 3.33 |
| GEGTGSPPKWIIGEQEFEALMRML [Q11I] | 2.97 |
| GEGTGSPPKWNIGEQEFEALMRML [Q11N] | 3.53 |
| GEGTGSPPKWDIGEQEFEALMRML [Q11D] | 3.82 |
| GEGTGSPPKWCIGEQEFEALMRML [Q11C] | 2.76 |
| GEGTGSPPKWAIGEQEFEALMRML [Q11A] | 2.86 |
| GEGTGSPPKWMIGEQEFEALMRML [Q11M] | 3.54 |
| GEGTGSPPKWWIGEQEFEALMRML [Q11W] | 3.04 |
| GEGTGSPPKWSIGEQEFEALMRML [Q11S] | 3.42 |
| GEGTGSPPKWLIGEQEFEALMRML [Q11L] | 2.98 |
| GEGTGSPPKWVIGEQEFEALMRML [Q11V] | 2.86 |
| GEGTGSPPKWGIGEQEFEALMRML [Q11G] | 2.66 |
| GEGTGSPPKWKIGEQEFEALMRML [Q11K] | 4.08 |
| GEGTGSPPKWEIGEQEFEALMRML [Q11E] | 3.24 |
| GEGTGSPPKWQIGEQEFEFLMRML [A19F] | 2.67 |
| GEGTGSPPKWQIGEQEFEHLMRML [A19H] | 3.65 |
| GEGTGSPPKWQIGEQEFETLMRML [A19T] | 3.25 |
| GEGTGSPPKWQIGEQEFEMLMRML [A19M] | 2.7 |
| GEGTGSPPKWQIGEQEFEILMRML [A19I] | 2.39 |
| GEGTGSPPKWQIGEQEFEELMRML [A19E] | 4.04 |

| Variant | protein stability index |
| --- | --- |
| GEGTGSPPKWQIGEQEFEVLMRML [A19V] | 2.97 |
| GEGTGSPPKWQIGEQEFEGLMRML [A19G] | 3.22 |
| GEGTGSPPKWQIGEQEFERLMRML [A19R] | 3.59 |
| GEGTGSPPKWQIGEQEFEQLMRML [A19Q] | 3.65 |
| GEGTGSPPKWQIGEQEFENLMRML [A19N] | 4.03 |
| GEGTGSPPKWQIGEQEFEPLMRML [A19P] | 3.25 |
| GEGTGSPPKWQIGEQEFESLMRML [A19S] | 2.94 |
| GEGTGSPPKWQIGEQEFELLMRML [A19L] | 2.85 |
| GEGTGSPPKWQIGEQEFEKLMRML [A19K] | 2.69 |
| GEGTGSPPKWQIGEQEFEYLMRML [A19Y] | 3.09 |
| GEGTGSPPKWQIGEQEFEDLMRML [A19D] | 4.11 |
| GEGTGSPPKWQIGEQEFECLMRML [A19C] | 3.43 |
| GEGTGSPPKWQIGEQEFEWLMRML [A19W] | 2.31 |
| GEGTGSPPKWQIGLQEFEALMRML [E14L] | 2.3 |
| GEGTGSPPKWQIGGQEFEALMRML [E14G] | 2.92 |
| GEGTGSPPKWQIGIQEFEALMRML [E14I] | 3.39 |
| GEGTGSPPKWQIGQQEFEALMRML [E14Q] | 3.19 |
| GEGTGSPPKWQIGRQEFEALMRML [E14R] | 2.6 |
| GEGTGSPPKWQIGVQEFEALMRML [E14V] | 2.29 |
| GEGTGSPPKWQIGTQEFEALMRML [E14T] | 2.79 |
| GEGTGSPPKWQIGDQEFEALMRML [E14D] | 3.17 |
| GEGTGSPPKWQIGPQEFEALMRML [E14P] | 2.93 |
| GEGTGSPPKWQIGMQEFEALMRML [E14M] | 2.72 |
| GEGTGSPPKWQIGAQEFEALMRML [E14A] | 3.16 |

| Variant | protein stability index |
| --- | --- |
| GEGTGSPPKWQIGCQEFEALMRML [E14C] | 2 |
| GEGTGSPPKWQIGNQEFEALMRML [E14N] | 2.96 |
| GEGTGSPPKWQIGYQEFEALMRML [E14Y] | 1.8 |
| GEGTGSPPKWQIGKQEFEALMRML [E14K] | 3.61 |
| GEGTGSPPKWQIGHQEFEALMRML [E14H] | 3.09 |
| GEGTGSPPKWQIGWQEFEALMRML [E14W] | 1.97 |
| GEGTGSPPKWQIGFQEFEALMRML [E14F] | 2.1 |
| GEGTGSPPKWQIGSQEFEALMRML [E14S] | 2.94 |
| GEGTGSPPKWQIGEQENEALMRML [F17N] | 3.55 |
| GEGTGSPPKWQIGEQEREALMRML [F17R] | 3.83 |
| GEGTGSPPKWQIGEQEWEALMRML [F17W] | 3.6 |
| GEGTGSPPKWQIGEQETEALMRML [F17T] | 3.75 |
| GEGTGSPPKWQIGEQEHEALMRML [F17H] | 4.32 |
| GEGTGSPPKWQIGEQEQEALMRML [F17Q] | 4.76 |
| GEGTGSPPKWQIGEQEPEALMRML [F17P] | 4.79 |
| GEGTGSPPKWQIGEQEKEALMRML [F17K] | 3.88 |
| GEGTGSPPKWQIGEQEYEALMRML [F17Y] | 3.94 |
| GEGTGSPPKWQIGEQESEALMRML [F17S] | 4.28 |
| GEGTGSPPKWQIGEQECEALMRML [F17C] | 3.33 |
| GEGTGSPPKWQIGEQEVEALMRML [F17V] | 3.84 |
| GEGTGSPPKWQIGEQEMEALMRML [F17M] | 3.52 |
| GEGTGSPPKWQIGEQEDEALMRML [F17D] | 4.82 |
| GEGTGSPPKWQIGEQEGEALMRML [F17G] | 4.19 |
| GEGTGSPPKWQIGEQEIEALMRML [F17I] | 3.15 |

| Variant | protein stability index |
| --- | --- |
| GEGTGSPPKWQIGEQEEEALMRML [F17E] | 4.52 |
| GEGTGSPPKWQIGEQEAEALMRML [F17A] | 3.92 |
| GEGTGSPPKWQIGEQELEALMRML [F17L] | 3.37 |
| GEGTGSPPKWQIGEHEFEALMRML [Q15H] | 2.83 |
| GEGTGSPPKWQIGEREFEALMRML [Q15R] | 2.59 |
| GEGTGSPPKWQIGEVEFEALMRML [Q15V] | 2.39 |
| GEGTGSPPKWQIGEGEFEALMRML [Q15G] | 2.99 |
| GEGTGSPPKWQIGEDEFEALMRML [Q15D] | 3.48 |
| GEGTGSPPKWQIGECEFEALMRML [Q15C] | 2.9 |
| GEGTGSPPKWQIGEEEFEALMRML [Q15E] | 3.33 |
| GEGTGSPPKWQIGETEFEALMRML [Q15T] | 3.09 |
| GEGTGSPPKWQIGEAEFEALMRML [Q15A] | 2.75 |
| GEGTGSPPKWQIGENEFEALMRML [Q15N] | 3.03 |
| GEGTGSPPKWQIGEKEFEALMRML [Q15K] | 2.47 |
| GEGTGSPPKWQIGESEFEALMRML [Q15S] | 3.13 |
| GEGTGSPPKWQIGEFEFEALMRML [Q15F] | 2.33 |
| GEGTGSPPKWQIGELEFEALMRML [Q15L] | 2.22 |
| GEGTGSPPKWQIGEYEFEALMRML [Q15Y] | 2.25 |
| GEGTGSPPKWQIGEPEFEALMRML [Q15P] | 3.51 |
| GEGTGSPPKWQIGEMEFEALMRML [Q15M] | 2.6 |
| GEGTGSPPKWQIGEIEFEALMRML [Q15I] | 2.49 |
| GEGTGSPPKWQIGEWEFEALMRML [Q15W] | 1.86 |

Reference: the supplement of paper PMC10567573
